The results in this text go back to US20210188980A1 (SHANGHAI EPIMAB BIOTHERAPEUTICS, published 2021).

Assay [1] concerns the target T1, human LAG-3 expressed on cells (human, UniProt P18627 23-525).
T1 sequence (looked up): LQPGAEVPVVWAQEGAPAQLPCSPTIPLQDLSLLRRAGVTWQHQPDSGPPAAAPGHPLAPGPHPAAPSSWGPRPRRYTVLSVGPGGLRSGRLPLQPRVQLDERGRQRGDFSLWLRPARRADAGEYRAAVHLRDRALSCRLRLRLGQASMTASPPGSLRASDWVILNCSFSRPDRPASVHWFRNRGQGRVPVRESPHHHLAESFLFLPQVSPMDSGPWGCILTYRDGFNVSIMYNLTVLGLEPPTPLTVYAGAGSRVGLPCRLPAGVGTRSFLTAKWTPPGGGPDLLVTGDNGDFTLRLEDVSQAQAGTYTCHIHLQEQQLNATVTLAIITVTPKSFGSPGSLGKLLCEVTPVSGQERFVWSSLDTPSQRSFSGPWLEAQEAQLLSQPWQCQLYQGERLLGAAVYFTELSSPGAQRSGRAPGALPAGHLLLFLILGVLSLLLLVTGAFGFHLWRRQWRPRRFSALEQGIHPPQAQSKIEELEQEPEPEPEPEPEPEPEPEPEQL
Nature of the assay: cell-based or functional assay.

The target of assay [2] is T2, human LAG-3 ECD/Fc fusion protein (human).
T2 construct: also called HuLAG-3 ECD/Fc
As to the kind of experiment: ELISA, coated huLAG-3 ECD/Fc. As for the experimental part: The supernatants of hybridoma clones were primarily screened by ELISA. Briefly, 50 μl/well of […] human LAG-3 ECD/Fc in NaHCO₃ were directly coated in each well of 96-well plate overnight. Plates were washed 3 times with 1×PBST, 300 μl per well. After blocking with 1% BSA in PBST at 250 μl per well and incubating at room temperature for 1 hour, the hybridoma supernatants were added at 50 μl per well and incubated at 37° C. for 1 hour. After washing, an HRP-linked goat anti-mouse IgG Fc secondary antibody (Cat. No. A0168, Sigma) was added at 100 μl/well and the plates were incubated at room temperature for 1 hour. TMB reagent (InnoReagents) was used to detect and develop the ELISA signal at 100 μl/well for 15 minutes, the reaction was stopped with 1 Normal HCL. The plates were read with a plate reader (SpectraMax® M5e, Molecular Devices, USA) at a wavelength of 450 nm. The ELISA-positive antibody producer clones were further verified by FACS analysis using methods similar to Example 1.4, above, except that stable HEK 293F cell lines expressing either human LAG-3 or cynomolgus LAG-3 were used. Hybridomas producing LAG-3 binding activity were selected and further characterized in a receptor blocking assay (RBA).
A binding ELISA was performed in the same way as described in Example 7.2 above. Each purified antibody was 10-fold serially diluted. After blocking of a 96-well assay plate with wells containing immobilized LAG-3 ECD/Fc fusion protein targets, the purified antibody samples with diluted concentrations were added to wells of the assay plate. The HRP-linked anti-mouse IgG antibody (A0168, Sigma) and TMB reagent were used to detect and develop the ELISA signal, which were read on a SpectraMax M5e plate reader at wavelength of 450 nm. Curves were fitted using GraphPad software, and EC50 values were calculated. Similarly, a RBA was also performed as described in Example 7.3 with titrated, purified antibodies, and maximum inhibition percentages and IC50 values were determined.
(In general: ELISA stands for enzyme-linked immunosorbent assay.)

Assay [3] concerns the target T1, human LAG-3 expressed on cells. Nature of the assay: FACS, HEK 293F huLAG-3 cells. As for the experimental part: (§1) FAGS analysis was performed using methods similar to Example 1.4, above, except that stable HEK 293F cell lines expressing either human LAG-3 cynomolgus LAG-3 were used. LAG-3 expressing cells were charged at 2×10⁴ cell per well into 96-well assay round-bottomed assay plates (Cat. No. 3799; Corning) and stained with purified anti-LAG-3 antibodies. LAG-3 antibodies were detected with AlexaFluor® Donkey anti-Mouse Ig (H+L) Highly Cross-Adsorbed Secondary Antibody (Cat. No. A21202; Invitrogen), and cell fluorescence was monitored using a flow cytometer. The data were processed by GraphPad software, and EC50 values were calculated.
A general note: Flow cytometry measures light scatter and fluorescence of single cells or particles in a stream.

For assay [4], the target named is T3, cynomolgus LAG-3 expressed on HEK 293F cells (cynomolgus).
T3 construct: whole, on cells
As to the kind of experiment: FACS, HEK 293F cynoLAG-3 cells. As for the experimental part:
as §1

Assay [5] addresses T2, human LAG-3 ECD/Fc fusion protein. Nature of the assay: FACS RBA, huLAG-3 ECD/Fc on Raji; competitor MHC Class II. As for the experimental part:
Supernatants displaying LAG-3 specific activity were tested for the ability to block LAG-3 receptor binding to MHC Class II. Raji human B cell lymphoblasts express high levels of MCH Class II and were used as binding targets for LAG-3 ECD/Fc proteins described above. Briefly, Raji cells were harvested and resuspend in FACS buffer and plated in 96-well plates (2×10⁵ cells/well). Anti-LAG-3 hybridoma supernatants were mixed with soluble LAG-3 ECD/Fc and the mixture was added to wells at a final volume of 100 μl/well. After adding the mixture to cells, the plates were incubated at room temperature for 30 minutes. After washing twice with PBS, the cells were incubated with anti-human IgG Alexa Fluor® 488 secondary antibody at 4° C. for 1 hour, washed twice with PBS, then fluorescence was measured on a flow cytometer.
Purified anti-LAG-3 antibodies also were tested in a RBA in the same manner as described in Example 7.3. Antibodies were also tested in an antigen-specific T cell activation assay, as follows: A huLAG-3 expressing murine T hybridoma cell line was generated to order by ChemPartner (Shanghai, CN). Mouse splenocytes from the same strain of mice were used as effector cells. The hybridoma expressing the huLAG-3 receptor protein is capable of binding to MHC Class II-positive mouse splenocytes, with inhibitory effect via engagement of Class II. The assay tests for anti-LAG-3 antibody-mediated reversal of the inhibitory effect, as measured by increased production of IL-2. Mouse spleenocytes were harvested from 6-8 week-old female C57BL/6 mice, red blood cells were lysed using Red Blood Cell Lysis Buffer (Sigma-Aldrich; R7757) according to the maker's instructions. Next, 50 μl T hybridoma-huLAG-3 cells (2×10⁶ cells/ml) were seeded in each well of a 96-well culture plate, and then a series of anti-LAG-3 monoclonal antibodies in solution at 50 μl/well were added and incubated at 37° C. for 30 min. Mouse splenocytes (4×10⁶ cells/ml) and the antigen (20 μg/ml) were mixed and incubated at 37° C. for 30 min. The mixture (100 μl/well) was added into each well that was already seeded with T hybridoma-huLAG-3 cells and anti-LAG-3 mAbs. The mixture of antibodies, T hybridoma-huLAG-3 cells, mouse splenocytes, and the antigen was cultured for 3 days.

Assay [6] concerns the target T4, recombinant human LAG-3-his protein (Novoprotein) (human, UniProt P18627 23-450).
T4 construct: Bought; also called huLAG-3; not shown: His tag
T4 sequence (looked up): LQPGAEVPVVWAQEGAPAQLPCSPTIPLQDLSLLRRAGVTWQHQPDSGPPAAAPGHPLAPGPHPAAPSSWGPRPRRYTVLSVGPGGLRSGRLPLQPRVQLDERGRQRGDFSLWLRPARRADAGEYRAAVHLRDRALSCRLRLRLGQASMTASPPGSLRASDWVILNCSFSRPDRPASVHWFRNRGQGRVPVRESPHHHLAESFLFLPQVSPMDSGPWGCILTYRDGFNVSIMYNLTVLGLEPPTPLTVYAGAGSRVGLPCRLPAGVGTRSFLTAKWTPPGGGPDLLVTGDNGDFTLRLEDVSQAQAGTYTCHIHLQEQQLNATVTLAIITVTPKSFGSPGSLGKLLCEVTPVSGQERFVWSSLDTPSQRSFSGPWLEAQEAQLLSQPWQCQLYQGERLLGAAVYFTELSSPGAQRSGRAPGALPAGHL
As to the kind of experiment: BLI Octet, Ab on AHC sensor, huLAG-3-his; test group 4. Here is the method: All 18 humanized antibodies (Table 34) and a chimeric antibody having the parental murine VH and VL domains (mAb747c) were ranked by dissociation rate constant (koff). Briefly, antibodies were characterized for affinities and binding kinetics by Octet®RED96 biolayer interferometry (Pall ForteBio LLC). Antibodies were captured by Anti-hIgG Fc Capture (AHC) Biosensors (Pall) at a concentration of 100 nM for 30 seconds. Sensors were then dipped into running buffer (1× pH7.2 PBS, 0.05% Tween 20, 0.1% BSA) for 60 seconds to check baseline. Binding was measured by dipping sensors into a single concentration of recombinant human LAG-3-his protein (Novoprotein). Dissociation was followed by dipping sensors into running buffer for 1200 seconds. The association and dissociation curves were fitted to a 1:1 Langmuir binding model using FortéBio Data Analysis software (Pall). In each test group, the off-rates of antibodies were able to be compared with that of mAb747c. The off-rate ratios were calculated by the off-rate of antibody to that of mAb747c of its group and were compared all together. The lower the ratio was, the higher was the affinity of the antibody.

B1: mAb748 (antibody, V domains shown)
VH: EVQMQQSGAELVRPGASVKLSCTVSGFNIKDDYMHWVKQRPEQGLEWIGWIDPENGDTEYASKFQGKATITADTSSNTAYLQLNSLTSEDTAVYYCTYFDYWGQGTTLTVSS
VL: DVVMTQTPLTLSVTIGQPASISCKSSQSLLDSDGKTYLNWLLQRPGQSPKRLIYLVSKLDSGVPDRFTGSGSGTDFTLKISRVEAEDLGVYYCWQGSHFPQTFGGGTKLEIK
notes: murine hybridoma anti-LAG-3 mAb
As for B1, the “Max IL-2” value in assay [1] was found to be 539 pg/mL. It took 0.24 nM to reach a half-maximal effect in assay [2] (EC50). Moreover, in assay [3], the response was half-maximal at 13.4 nM (EC50) and the Max-MFI worked out at 73.1 MFI. Moreover, in assay [4], the EC50 (usually the concentration that produces a half-maximal response) is 79.6 nM and the Max-MFI came out at 31.9 MFI. In assay [5], the IC50 (usually the midpoint of a concentration-inhibition curve) was found to be 4.8 nM and the “Max. Inhib. (%)” value was 96.1%.

B2: HumAb747-59 (antibody, human IgG1, V domains shown)
VH: EVQLVQSGAEVKKPGATVKLSCTASDFNIKDDYMHWVKQRPEQGLEWIGWIVPENGNTEYASKFQGRATITADTSTNTAYLELSSLRSEDTAVYYCTVYGDYWGQGTTVTVSS
VL: DIQMTQSPSSLSASVGDRVTITCRASQEISGYLSWLQQKPGGAIKRLIYAASTLDSGVPSRFSGSRSGSDYTLTISSLQPEDFADYYCLQYASYPLTFGQGTKLELK
notes: humanized mAb747; human IgG1/kappa constant domains
For B2, in assay [6], the off-rate constant (koff) – broadly, the first-order rate constant of dissociation – stood at 0.0012 s⁻¹ and the “off-rate ratio to that of mAb747c” value is 226%.

B3: HumAb747-60 (antibody, human IgG1, V domains shown)
VH: EVQLVQSGAEVKKPGATVKLSCTASDFNIKDDYMHWVKQRPEQGLDWIGWIVPENGNTEYASKFQGKATITADTSTNTAYLELSSLRSEDTAVYYCTVYGDYWGQGTTVTVSS
VL: DIQMTQSPSSLSASVGDRVTITCRASQEISGYLSWLQQKPGGAIKRLIYAASTLDSGVPSRFSGSRSGSDYTLTISSLQPEDFADYYCLQYASYPLTFGQGTKLELK
notes: as for B2
Take B3: in assay [6], the koff was 0.00081 s⁻¹ and the “off-rate ratio to that of mAb747c” value turned out to be 153%.

B4: mAb742 (antibody, V domains shown)
VH: QGQLQQSGAELVRPGASVTLSCKASGYTFNDYEMHWVKQTPVHGLEWIGAIDPETGGTAYNQKFKGKAILTADKSSSTAYMELRSLTSEDSAVYYCIRWGSTVFPYWGQGTLVTVS
VL: DGVLTQTPLSLPVNIGDQASISCKSTKSLLNSDGFTYLDWYLQKPGQSPQLLIYLVSNRFSGVPDRFSGSGSGTDFTLKISRVEAEDLGVYYCFQSNYLPWTFGGGTKLEIK
notes: as for B1
On to B4, for which the “Max IL-2” value in assay [1] turned out to be 733 pg/mL. Besides, the EC50 in assay [2] was found to be 0.22 nM. In assay [3], this molecule returned an EC50 of 2.8 nM and a Max-MFI of 103 MFI. In addition, in assay [4], the EC50 was 56.4 nM and the Max-MFI worked out at 48.5 MFI. Further, in assay [5], the IC50 turned out to be 3.84 nM and the “Max. Inhib. (%)” value was 96.5%.

B5: mAb744 (antibody, V domains shown)
VH: QVQLQQSGAELVRPGTSVTLSCKASGYTFTDYEMHWMKQTPVHGLEWIGAIDPATGGTAYNQKFKGKAILTADKSSSTAYMDFRSLTSEDSAVYYCIRWGTTVFPYWGQGTLVTVS
VL: DVVLTQTPLSLPVNIGDQASISCKSTKSLLNSDGFTYLDWYLQKPGQSPQLLIYLVSNRFSGVPDRFSGSGSGTDFTLKISRVEAEDLGVYYCFQSNYLPWTFGGGTKLEIK
notes: murine hybridoma anti-LAG-3 mAb; also called rnAb744
Turning to B5, the “Max IL-2” value in assay [1] came out at 612 pg/mL. Also, the EC50 was determined as 0.19 nM in assay [2], 9.5 nM in assay [3] and 67 nM in assay [4]. Also, the Max-MFI in assay [3] worked out at 135 MFI; in assay [4], 37.8 MFI. The IC50 in assay [5] came out at 10.8 nM. Besides, the “Max. Inhib. (%)” value in assay [5] amounted to 96.5%.
